Measured values taken from paper PMC12674617 (2025).

B1: full-length BICD2 tagged on the C-terminus with mini-TurboID (BICD2-mTrbo) [human] / KIF5B [human (endogenous in HEK293)] (parent complex)
chain 1: MSAPSEEEEYARLVMEAQPEWLRAEVKRLSHELAETTREKIQAAEYGLAVLEEKHQLKLQFEELEVDYEAIRSEMEQLKEAFGQAHTNHKKVAADGESREESLIQESASKEQYYVRKVLELQTELKQLRNVLTNTQSENERLASVAQELKEINQNVEIQRGRLRDDIKEYKFREARLLQDYSELEEENISLQKQVSVLRQNQVEFEGLKHEIKRLEEETEYLNSQLEDAIRLKEISERQLEEALETLKTEREQKNSLRKELSHYMSINDSFYTSHLHVSLDGLKFSDDAAEPNNDAEALVNGFEHGGLAKLPLDNKTSTPKKEGLAPPSPSLVSDLLSELNISEIQKLKQQLMQMEREKAGLLATLQDTQKQLEHTRGSLSEQQEKVTRLTENLSALRRLQASKERQTALDNEKDRDSHEDGDYYEVDINGPEILACKYHVAVAEAGELREQLKALRSTHEAREAQHAEEKGRYEAEGQALTEKVSLLEKASRQDRELLARLEKELKKVSDVAGETQGSLSVAQDELVTFSEELANLYHHVCMCNNETPNRVMLDYYREGQGGAGRTSPGGRTSPEARGRRSPILLPKGLLAPEAGRADGGTGDSSPSPGSSLPSPLSDPRREPMNIYNLIAIIRDQIKHLQAAVDRTTELSRQRIASQELGPAVDKDKEALMEEILKLKSLLSTKREQITTLRTVLKANKQTAEVALANLKSKYENEKAMVTETMMKLRNELKALKEDAATFSSLRAMFATRCDEYITQLDEMQRQLAAAEDEKKTLNSLLRMAIQQKLALTQRLELLELDHEQTRRGRAKAAPKTKPATPSL
chain 2: MADLAECNIKVMCRFRPLNESEVNRGDKYIAKFQGEDTVVIASKPYAFDRVFQSSTSQEQVYNDCAKKIVKDVLEGYNGTIFAYGQTSSGKTHTMEGKLHDPEGMGIIPRIVQDIFNYIYSMDENLEFHIKVSYFEIYLDKIRDLLDVSKTNLSVHEDKNRVPYVKGCTERFVCSPDEVMDTIDEGKSNRHVAVTNMNEHSSRSHSIFLINVKQENTQTEQKLSGKLYLVDLAGSEKVSKTGAEGAVLDEAKNINKSLSALGNVISALAEGSTYVPYRDSKMTRILQDSLGGNCRTTIVICCSPSSYNESETKSTLLFGQRAKTIKNTVCVNVELTAEQWKKKYEKEKEKNKILRNTIQWLENELNRWRNGETVPIDEQFDKEKANLEAFTVDKDITLTNDKPATAIGVIGNFTDAERRKCEEEIAKLYKQLDDKDEEINQQSQLVEKLKTQMLDQEELLASTRRDQDNMQAELNRLQAENDASKEEVKEVLQALEELAVNYDQKSQEVEDKTKEYELLSDELNQKSATLASIDAELQKLKEMTNHQKKRAAEMMASLLKDLAEIGIAVGNNDVKQPEGTGMIDEEFTVARLYISKMKSEVKTMVKRCKQLESTQTESNKKMEENEKELAACQLRISQHEAKIKSLTEYLQNVEQKKRQLEESVDALSEELVQLRAQEKVHEMEKEHLNKVQTANEVKQAVEQQIQSHRETHQKQISSLRDEVEAKAKLITDLQDQNQKMMLEQERLRVEHEKLKATDQEKSRKLHELTVMQDRREQARQDLKGLEETVAKELQTLHNLRKLFVQDLATRVKKSAEIDSDDTGGSAAQKQKISFLENNLEQLTKVHKQLVRDNADLRCELPKLEKRLRATAERVKALESALKEAKENASRDRKRYQQEVDRIKEAVRSKNMARRGHSAQIAKPIRPGQHPAASPTHPSAIRGGGAFVQNSQPVAVRGGGGKQV

Variants of: B1
Experiment: proximity biotinylation, streptavidin bead purification, western blot quantification; parent: 1; read off a plot

ratio to parent	Variant
~0.78	chain 1 R694C
~0.86	chain 1 N188T
~0.5	chain 1 R747C
